Source: patent US20260226179A1 (MAB DESIGNS, published 2026)
Substitutions are numbered along the chain they refer to. Where “and” joins values, the source holds several entries; their conditions need not be identical. Identical values can stand only once.

T1: human membrane-bound IL-6R subunit alpha (human, UniProt P08887 20-468)
T1 sequence: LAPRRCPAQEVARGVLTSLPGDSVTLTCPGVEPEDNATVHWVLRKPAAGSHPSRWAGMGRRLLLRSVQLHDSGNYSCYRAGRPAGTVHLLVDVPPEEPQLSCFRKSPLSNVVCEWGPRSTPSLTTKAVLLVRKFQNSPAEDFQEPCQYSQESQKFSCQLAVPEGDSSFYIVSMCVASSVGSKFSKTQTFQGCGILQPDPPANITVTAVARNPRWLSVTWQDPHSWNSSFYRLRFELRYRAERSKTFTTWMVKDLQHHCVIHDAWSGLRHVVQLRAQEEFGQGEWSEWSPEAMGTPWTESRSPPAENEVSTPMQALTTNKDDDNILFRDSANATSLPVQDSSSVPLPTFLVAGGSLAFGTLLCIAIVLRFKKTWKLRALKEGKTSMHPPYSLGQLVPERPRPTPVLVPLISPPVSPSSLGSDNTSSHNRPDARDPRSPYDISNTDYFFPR

T2: human soluble IL-6R (human, UniProt P08887 20-357)
T2 sequence: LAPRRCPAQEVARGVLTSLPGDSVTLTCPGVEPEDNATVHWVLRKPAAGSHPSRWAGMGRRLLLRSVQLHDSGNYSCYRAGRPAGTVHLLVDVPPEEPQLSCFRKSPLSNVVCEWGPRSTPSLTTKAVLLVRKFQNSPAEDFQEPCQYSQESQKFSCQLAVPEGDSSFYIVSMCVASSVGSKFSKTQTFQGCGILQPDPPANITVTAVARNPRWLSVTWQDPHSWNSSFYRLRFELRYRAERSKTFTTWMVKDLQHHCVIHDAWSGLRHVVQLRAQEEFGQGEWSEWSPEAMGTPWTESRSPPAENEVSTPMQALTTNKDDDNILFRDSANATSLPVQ

T3: human membrane-bound IL-6R subunit alpha (human, UniProt P08887 20-468)
T3 sequence: T1 sequence

T4: human soluble IL-6R (human, UniProt P08887 20-357, limits assumed)
T4 sequence: T2 sequence

T5: mouse membrane-bound IL-6R subunit alpha (mouse, UniProt P22272 20-460)
T5 sequence: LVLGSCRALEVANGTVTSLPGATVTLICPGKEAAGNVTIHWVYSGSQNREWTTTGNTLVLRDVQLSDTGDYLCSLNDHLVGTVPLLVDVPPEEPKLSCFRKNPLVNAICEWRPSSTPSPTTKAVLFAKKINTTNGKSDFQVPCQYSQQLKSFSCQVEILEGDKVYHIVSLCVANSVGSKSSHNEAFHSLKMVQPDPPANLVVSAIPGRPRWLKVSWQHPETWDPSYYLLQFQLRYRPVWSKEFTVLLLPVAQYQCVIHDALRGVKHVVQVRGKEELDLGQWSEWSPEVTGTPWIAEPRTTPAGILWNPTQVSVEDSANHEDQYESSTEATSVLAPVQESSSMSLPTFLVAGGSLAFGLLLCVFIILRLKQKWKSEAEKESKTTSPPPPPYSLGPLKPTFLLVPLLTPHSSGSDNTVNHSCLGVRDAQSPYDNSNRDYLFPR

T6: murine soluble IL-6R (mouse, UniProt P22272 20-347, limits assumed)
T6 sequence: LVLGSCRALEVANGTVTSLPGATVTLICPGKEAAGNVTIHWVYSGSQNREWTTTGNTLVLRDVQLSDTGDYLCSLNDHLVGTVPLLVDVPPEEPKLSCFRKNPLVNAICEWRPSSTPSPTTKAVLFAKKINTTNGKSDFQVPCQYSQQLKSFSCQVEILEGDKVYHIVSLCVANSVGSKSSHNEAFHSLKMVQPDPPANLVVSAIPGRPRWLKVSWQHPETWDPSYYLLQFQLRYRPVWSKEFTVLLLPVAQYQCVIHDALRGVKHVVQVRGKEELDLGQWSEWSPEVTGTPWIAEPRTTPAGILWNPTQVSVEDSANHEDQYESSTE

B1: candidate anti-IL-6R Fab clone 09 (Fab, V domains shown)
VH: EVQLVESGGDLVQPGGSLKLSCAASGFTFSNYGMSWVRQTPDKRLELVAAINSNGGSTYYPDSVKGRFTISRDNAKNTLYLQMSSLKSEDTAMYYCARDGNYVSDYWGQGTTLTVSS
VL: DIVLTQSPASLAVSLGQRATISCRASESVDSYGNSFMHWYQQKPGQPPKLLIYLASNLESGVPARFSGSGSRTDFTLTIDPVEADDAATYYCQQNNEDPWTFGGGTKLEIK
B2: anti-IL-6R IgG antibody 09 (C09 antibody, Fab chimerized with human IgG1) (antibody, V domains shown)
VH: B1 VH
VL: B1 VL
B3: anti-IL-6R IgG antibody 12 (C12 antibody, Fab chimerized with human IgG1) (antibody, V domains shown)
VH: B1 VH with Q3K, V5M, D10G, L47W, A50N, K76Q, A97T, Y102F
VL: B1 VL with L15P, H38N, W100Y
B4: anti-IL-6R IgG antibody 19 (C19 antibody, Fab chimerized with human IgG1) (antibody, V domains shown)
VH: EVKLMESGGGLVQPGGSLKLSCAASGFTFSNYGMSWVRQTPDKRLELVAIMNSKGGSTYYPDSVMGRFTISRDNAKNTLYLQMSSLKSEDTAMYYCARDGYYTMDYWGQGTSVTVSS
VL: B1 VL with E27K, Y32F, P47S, K49R, Y53F, W100Y
B5: anti-IL-6R IgG antibody 20 (C20 antibody, Fab chimerized with human IgG1) (antibody, V domains shown)
VH: B1 VH with Q3K, V5M, D10G, A50I, M93I, Y102F
VL: B1 VL with S35R, M37L, H38N, W100Y

Molecular target: T1, human membrane-bound IL-6R subunit alpha
Assay: cell-based or functional assay

Row | Binder | Residual STAT3 phosphorylation in HEK293_IL-6R (IL-6 + sIL-6R; combined classical and trans signalling; 1% PE)
1 | B1 | 83%

Molecular target: T2, human soluble IL-6R
Assay: cell-based or functional assay

Row | Binder | Classical:trans signalling ratio intracellular signalling | Residual STAT3 phosphorylation in HEK293 (IL-6 + sIL-6R; IL-6 trans signalling; 1% PE)
2 | B1 | 2.2 ratio | 38%

Molecular target: T3, human membrane-bound IL-6R subunit alpha
Assay: cell-based or functional assay

Row | Binder | STAT3 phosphorylation in % in HEK293_IL-6R cells (10 ng/ml IL-6 for 30 min = 100%), IgG at 1 µg/ml
3 | B2 | 69.7%
4 | B3 | 97.8%
5 | B4 | 89.5%
6 | B5 | 86.9%

Molecular target: T3, human membrane-bound IL-6R subunit alpha
Assay: cell-based or functional assay
Remark: another data set of the same source

Row | Binder | Proliferation in % of Ba/F3_gp130_IL-6R cells (10 ng/ml IL-6 = 100%), IgG at 1 µg/ml | Proliferation in % of Ba/F3_gp130_IL-6R cells (10 ng/ml IL-6 = 100%), IgG at 10 µg/ml
7 | B2 | 100% | 94%
8 | B3 | 94.3% | 92.2%
9 | B4 | 100% | 93.1%
10 | B5 | 92.6% | 87.6%

Molecular target: T4, human soluble IL-6R
Assay: cell-based or functional assay

Row | Binder | STAT3 phosphorylation in % in HEK293 cells (10 ng/ml IL-6 + 200 ng/ml sIL-6R for 30 min = 100%), IgG at 1 µg/ml
11 | B2 | 20%
12 | B3 | 4%
13 | B4 | 6.9%
14 | B5 | 0.2%

Molecular target: T2, human soluble IL-6R
Assay: cell-based or functional assay
Remark: another data set of the same source

Row | Binder | Proliferation in % (Ba/F3_gp130 cells, IL-6 + sIL-6R = 100%; IL-6 trans signalling; 1% PE)
15 | B1 | 69.8%

Molecular target: T1, human membrane-bound IL-6R subunit alpha
Assay: cell-based or functional assay
Remark: another data set of the same source

Row | Binder | Proliferation in % (Ba/F3_gp130_IL-6R cells, IL-6 + sIL-6R = 100%; combined IL-6 classical and trans signalling; 1% PE)
16 | B1 | 91.6%

Molecular target: T3, human membrane-bound IL-6R subunit alpha
Assay: cell-based or functional assay
Remark: another data set of the same source

Row | Binder | IC50 for inhibition of IL-6 classical signalling-induced proliferation
17 | B2 | > 53 nM
18 | B3 | > 53 nM
19 | B4 | > 53 nM
20 | B5 | > 53 nM

Molecular target: T4, human soluble IL-6R
Assay: cell-based or functional assay
Remark: another data set of the same source

Row | Binder | IC50 of inhibition of proliferation of Ba/F3_gp130 cells induced by 10 ng/ml IL-6 and 200 ng/ml sIL-6R
21 | B2 | 5260 ng/ml and 35 nM
22 | B3 | 863 ng/ml and 5.8 nM
23 | B4 | 1210 ng/ml and 8 nM
24 | B5 | 531 ng/ml and 3.5 nM

Molecular target: T2, human soluble IL-6R
Assay: cell-based or functional assay
Remark: another data set of the same source

Row | Binder | Classical:trans signalling ratio proliferation
25 | B1 | 1.3 ratio

Molecular target: T3, human membrane-bound IL-6R subunit alpha
Assay: cell-based or functional assay
Remark: another data set of the same source

Row | Binder | STAT3 phosphorylation in % in HEK293_IL-6R cells (10 ng/ml IL-6 + 200 ng/ml sIL-6R = 100%, mixed signalling), IgG at 1 µg/ml
26 | B2 | 102%
27 | B3 | 99.9%
28 | B4 | 98.4%
29 | B5 | 88.1%

Molecular target: Hyper-IL-6 (recombinant fusion protein consisting of IL-6 and soluble IL-6R)
Assay: cell-based or functional assay

Row | Binder | IC50 of inhibition of proliferation of Ba/F3_gp130 cells induced by 28 ng/ml Hy-IL-6
30 | B2 | 4130 ng/ml and 28 nM
31 | B3 | 748 ng/ml and 5 nM
32 | B4 | 755 ng/ml and 5 nM
33 | B5 | 304 ng/ml and 2 nM

Molecular target: T3, human membrane-bound IL-6R subunit alpha
Assay: cell-based or functional assay
Remark: another data set of the same source

Row | Binder | Proliferation in % of Ba/F3_gp130_IL-6R cells with 10 ng/ml IL-6 and 200 ng/ml sIL-6R (mixed signalling), IgG at 1 µg/ml | Proliferation in % of Ba/F3_gp130_IL-6R cells with 10 ng/ml IL-6 and 200 ng/ml sIL-6R (mixed signalling), IgG at 10 µg/ml
34 | B2 | 101% | 97.6%
35 | B3 | 94.3% | 87.6%
36 | B4 | 104% | 95.2%
37 | B5 | 94.7% | 88.6%

Molecular target: T5, mouse membrane-bound IL-6R subunit alpha
Assay: cell-based or functional assay

Row | Binder | Proliferation in % of Ba/F3_gp130_muIL-6R cells (10 ng/ml murine IL-6 + 200 ng/ml murine soluble IL-6R = 100%, mixed signalling), IgG at 10 µg/ml
38 | B2 | 106%
39 | B3 | 114%
40 | B4 | 116%
41 | B5 | 114%

Molecular target: T5, mouse membrane-bound IL-6R subunit alpha
Assay: cell-based or functional assay
Remark: another data set of the same source

Row | Binder | Proliferation in % of Ba/F3_gp130_muIL-6R cells (10 ng/ml murine IL-6 = 100%), IgG at 10 µg/ml
42 | B2 | 104%
43 | B3 | 102%
44 | B4 | 105%
45 | B5 | 108%

Molecular target: T6, murine soluble IL-6R
Assay: cell-based or functional assay

Row | Binder | Proliferation in % of Ba/F3_gp130 cells (10 ng/ml murine IL-6 + 200 ng/ml murine soluble IL-6R = 100%), IgG at 10 µg/ml
46 | B2 | 104%
47 | B3 | 106%
48 | B4 | 108%
49 | B5 | 86.2%
